Target: Protein A (Staphylococcus aureus) (UniProt P38507)
Experiment: Protein A interaction assay (POROS A column HPLC), acidic elution

retention time: 31.3 min
Substance: hu IgG (positive control) (antibody)
